How the values were obtained:
Format in all cases: biochemical
[1] = Hydrolysis of Xyl7 on different substrates (DNS method); details: substrate 2% (w/w), pH7.0, 50, 10 minutes
Description: (§1) In a 100 μl reaction system, birch xylan was added to a final concentration of 1% (w/w), and Na2HPO4/NaH2PO4 buffer (pH7.0) was added to a final concentration of 100 mM. A suitable amount of enzyme solution diluted by the abovementioned buffer was added to the reaction system for reaction at 50[…] for 10 minutes. 100 μl DNS were added to stop the reaction. For the control, 100 μl DNS were firstly added to the above reaction system before adding the enzyme solution. The reaction mixtures were subjected to a boiled water bath for 5 minutes to develop color. Absorbance value at 540 nm was detected by a microplate reader. After subtracting the absorbance value of the control from that of the sample, the enzymatic activity unit (U) was calculated based on the standard curve.
Various substrates with a final concentration of 2% (w/w) were treated by a suitable amount of enzymes at pH7.0 and 50[…] for 10 minutes. Enzymatic activity was tested according to the above standard enzymatic activity detection steps. […] No detectable enzymatic activity was found for the other test substrates. This was consistent to the high substrate specificity of xylanase of the GH11 Family.

[2] = Thermal stability test of purified mutant proteins at 55° C. and 60° C.
Description: Enzymatic activity was tested according to the above standard enzymatic activity detection steps (enzymatic activity was tested after reacting at pH7.0, 50° C. for 10 minutes). The enzyme solution which was not subjected to heat treatment was used as a control. Its specific activity tested under pH 7.0, 50° C. was used as a reference value and its relative activity was defined as 100%. The relative activity of the treatment group was a ratio between the relative activity value obtained after storing at different temperatures for different times (treatment conditions) and the reference value. […] After storing at these temperatures for 45 min, the enzymatic activity decreased to be less than 50% of the maximum activity.
Transformants were picked up by sterile toothpick to a LB liquid culture containing antibiotic and IPTG (in a final concentration of 1 mM) contained within the wells of a 96-well plate and cultured overnight at 37° C. and 200 rpm. Thallus was collected by centrifugation. 100 ul buffers having the optimum reaction pH were added to re-suspend the thallus. […] Enzymatic activity was detected according to the DNS method. […] Then the enzymatic activity was detected. The residual enzymatic activity of the treatment group was calculated as a percentage of the enzymatic activity of the treatment group in relative to that of the control group. […]

[3] = Residual activity under pulp bleaching conditions (alkaline pH, high temperature); details: 50-70, pH8-9, one to two hours
Description: as §1, with “curve. […]” for “curve.”

[4] = Detection of the optimum pH
Description: as §1
Buffers having different pH values in the range of 3.5-10 in a gradient of 0.5 unit were prepared, wherein NaAc with a final concentration of 100 mM was used to prepare the buffers having a pH in the range of 3.5-6.0, Na2HPO4/NaH2PO4 with a final concentration of 100 mM was used to prepare the buffers having a pH in the range of 6.0-8.0, and Tris-HCl with a final concentration of 100 mM was used to prepare the buffers having a pH in the range of 8.0-10.0. The enzyme solution was added into each pH buffer system and the enzymatic activity was tested according to the above standard enzymatic activity detection steps. […]

B1: Xyl7: endo-1,4-β-xylanase of 505 amino acids, SEQ ID NO:2, from termite gut metagenome, expressed in E. coli with His tag (protein)
chain: MKKLIALSFIAAFFAPLFAQGPTWTTSTIQAYNGYDYELWNQNNAGTVSMKLTGDNGSGASAVGGTFTATWSNTQNVLFRSGKKWGSSSNQNHTQIGNMSINFAATWSSTDNVKMLGVYGWAYFTSANVPTKQENGTNASFSNQIEYYIIQDRGSYNPASGGTNAKKYGSATIDGIAYDFYVCDRINQPMLTGNGNFKQFFSVPQSASAHRTSGTISVSQHFNKWHELGMKMDGPLYEVAMKVESYTGSGSSNGSATVTKNLLTIGGTTPTPSSNSGGTTSSSSRASSSSRASSSSNAAVQATTCKTPLITYPTSTVPSDPYTACFKYTDDKCYVCKVENEGEFEGNMNTCGSGWVWDGTQIDNNLRDGYWYQEVPCPAGSSSSRSSSSSVAVSSSSRSSSSSVAASSSSRSSSSSASVSSSSEETPIRVLHTIPSKFRVRSLNNGALQIESNADVVLYLYDTKGKMAQKIEAPTGSSIVKLSVPAGIYIVRNVQTKEKLRVMVR
modifications: His tag; Intestinal tract metagenome of termite
Specific Activity on barley dextran [1]: 0 U/mg | Specific Activity on carboxymethyl cellulose sodium [1]: 0 U/mg | Specific Activity on laminarin [1]: 0 U/mg | Specific Activity on locust bean gum [1]: 0 U/mg | Specific Activity on microcrystalline cellulose powder [1]: 0 U/mg | half life at 60° C. [2]: less than 10 minutes | residual enzymatic activity at high temperature in alkaline environment [3]: retain a sufficiently high enzymatic activity | optimum pH ([4]; buffers pH 3.5-10, 50): 7.0 | relative activity in the pH range of from 5.5 to 10 ([4]; relative to activity at pH7.0, 50): ≥ 50%
